In publication PMC9482650, “Quantitative fragmentomics allow affinity mapping of interactomes” (Nature Communications, 2022):

T1: DFNB31_1, Q9P202
T1 sequence (Q9P202 135-233, limits assumed, looked up): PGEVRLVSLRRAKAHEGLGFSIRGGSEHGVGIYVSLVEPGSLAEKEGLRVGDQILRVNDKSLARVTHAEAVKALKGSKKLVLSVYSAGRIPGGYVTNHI

T2: DLG3_1, Q92796
T2 sequence (Q92796 125-227, limits assumed, looked up): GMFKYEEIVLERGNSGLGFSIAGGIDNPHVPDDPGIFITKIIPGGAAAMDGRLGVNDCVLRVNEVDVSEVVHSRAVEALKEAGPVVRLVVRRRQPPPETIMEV

T3: DLG3_2, Q92796
T3 sequence (Q92796 221-321, limits assumed, looked up): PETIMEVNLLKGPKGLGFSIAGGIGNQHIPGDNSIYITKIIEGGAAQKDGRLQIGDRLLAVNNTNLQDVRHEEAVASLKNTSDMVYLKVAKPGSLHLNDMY

T4: LIN7B, Q9HAP6
T4 sequence (Q9HAP6 88-185, limits assumed, looked up): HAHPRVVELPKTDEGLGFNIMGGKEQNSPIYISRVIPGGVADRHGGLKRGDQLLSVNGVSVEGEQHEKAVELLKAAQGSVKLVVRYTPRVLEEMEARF

T5: MPDZ_10, O75970
T5 sequence (O75970 1624-1722, limits assumed, looked up): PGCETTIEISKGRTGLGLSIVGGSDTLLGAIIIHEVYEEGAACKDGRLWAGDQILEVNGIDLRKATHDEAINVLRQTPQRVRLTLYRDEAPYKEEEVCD

T6: MPDZ_12, O75970
T6 sequence (O75970 1857-1958, limits assumed, looked up): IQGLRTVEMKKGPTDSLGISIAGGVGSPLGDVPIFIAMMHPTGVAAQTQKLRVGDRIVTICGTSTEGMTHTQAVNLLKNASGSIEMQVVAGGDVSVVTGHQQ

T7: MPDZ_5, O75970
T7 sequence (O75970 695-796, limits assumed, looked up): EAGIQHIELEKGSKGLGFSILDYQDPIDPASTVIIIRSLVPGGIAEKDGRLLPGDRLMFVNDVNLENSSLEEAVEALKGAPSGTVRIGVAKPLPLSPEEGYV

T8: NHERF3_3, Q5T2W1
T8 sequence (Q5T2W1 238-333, limits assumed, looked up): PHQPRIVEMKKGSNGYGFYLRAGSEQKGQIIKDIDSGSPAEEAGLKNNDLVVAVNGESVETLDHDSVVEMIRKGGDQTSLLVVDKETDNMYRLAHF

T9: PDZRN3_1, Q9UPQ7
T9 sequence (Q9UPQ7 244-349, limits assumed, looked up): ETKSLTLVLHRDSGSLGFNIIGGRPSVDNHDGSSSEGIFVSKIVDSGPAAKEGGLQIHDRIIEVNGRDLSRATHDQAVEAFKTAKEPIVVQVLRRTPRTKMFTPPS

T10: RAPGEF6, Q8TEU7
T10 sequence (Q8TEU7 525-625, limits assumed, looked up): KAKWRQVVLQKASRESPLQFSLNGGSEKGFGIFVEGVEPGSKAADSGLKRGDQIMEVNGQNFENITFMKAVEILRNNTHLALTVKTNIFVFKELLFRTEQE

T11: SIPA1L2, Q9P2F8
T11 sequence (Q9P2F8 945-1036, limits assumed, looked up): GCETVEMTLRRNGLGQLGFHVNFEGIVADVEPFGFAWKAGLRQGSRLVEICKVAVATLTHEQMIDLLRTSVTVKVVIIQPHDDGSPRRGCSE

T12: SNTG2, Q9NY99
T12 sequence (Q9NY99 68-166, limits assumed, looked up): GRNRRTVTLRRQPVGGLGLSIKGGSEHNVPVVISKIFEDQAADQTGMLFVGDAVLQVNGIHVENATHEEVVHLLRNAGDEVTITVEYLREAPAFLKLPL


What follows are binders tested against AHNAK1, Q09666 (assay: holdup assay). Conditions: plain residues with an end cap or a label only (N-terminal biotin on a linker: ado-ado).
Sequence of AHNAK1, Q09666 (Q09666 4-100): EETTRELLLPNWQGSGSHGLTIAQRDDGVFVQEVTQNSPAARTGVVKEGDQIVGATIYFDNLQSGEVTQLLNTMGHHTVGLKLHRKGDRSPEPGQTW
Parameters: key: below the threshold = too weak to quantify, mostly under pKd 3.1 to 4

Binder	pKd
NNNVVKVDSV [MTNR1A, P48039]	below the threshold
SVTSERETNI [SLC16A7, O60669]	below the threshold
GEDRSPPTAL [MKNK1, Q9BUB5]	below the threshold

These binders were tested against T1, DFNB31_1, Q9P202 (assay: holdup assay). Conditions: plain residues with an end cap or a label only (N-terminal biotin on a linker: ado-ado).
Parameters: key: below the threshold = too weak to quantify, mostly under pKd 3.1 to 4

Binder	pKd
NNNVVKVDSV [MTNR1A, P48039]	below the threshold
SVTSERETNI [SLC16A7, O60669]	4.68
GEDRSPPTAL [MKNK1, Q9BUB5]	below the threshold

What follows are binders tested against DLG1_3, Q12959 (assay: holdup assay). Conditions: plain residues with an end cap or a label only (N-terminal biotin on a linker: ado-ado).
Sequence of DLG1_3, Q12959 (Q12959 457-571): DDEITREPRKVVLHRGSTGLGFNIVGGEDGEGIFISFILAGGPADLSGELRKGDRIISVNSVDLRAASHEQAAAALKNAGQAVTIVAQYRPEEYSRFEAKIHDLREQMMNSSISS
Parameters: key: below the threshold = too weak to quantify, mostly under pKd 3.1 to 4

Binder	pKd
NNNVVKVDSV [MTNR1A, P48039]	below the threshold
SVTSERETNI [SLC16A7, O60669]	below the threshold
GEDRSPPTAL [MKNK1, Q9BUB5]	below the threshold

Each binder was assayed against T2, DLG3_1, Q92796 (assay: holdup assay). Conditions: plain residues with an end cap or a label only (N-terminal biotin on a linker: ado-ado).
Parameters: key: below the threshold = too weak to quantify, mostly under pKd 3.1 to 4

Binder	pKd
NNNVVKVDSV [MTNR1A, P48039]	below the threshold
SVTSERETNI [SLC16A7, O60669]	below the threshold
GEDRSPPTAL [MKNK1, Q9BUB5]	below the threshold

Each binder was assayed against T3, DLG3_2, Q92796 (assay: holdup assay). Conditions: plain residues with an end cap or a label only (N-terminal biotin on a linker: ado-ado).
Parameters: key: below the threshold = too weak to quantify, mostly under pKd 3.1 to 4

Binder	pKd
NNNVVKVDSV [MTNR1A, P48039]	4.03
SVTSERETNI [SLC16A7, O60669]	4.25
GEDRSPPTAL [MKNK1, Q9BUB5]	below the threshold

What follows are binders tested against FRMPD2_3, Q68DX3 (assay: holdup assay). Conditions: plain residues with an end cap or a label only (N-terminal biotin on a linker: ado-ado).
Sequence of FRMPD2_3, Q68DX3 (Q68DX3 1073-1166): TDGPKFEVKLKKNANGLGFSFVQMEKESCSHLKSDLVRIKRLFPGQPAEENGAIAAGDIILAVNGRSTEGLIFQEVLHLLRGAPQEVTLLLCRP
Parameters: key: below the threshold = too weak to quantify, mostly under pKd 3.1 to 4

Binder	pKd
NNNVVKVDSV [MTNR1A, P48039]	below the threshold
SVTSERETNI [SLC16A7, O60669]	below the threshold
GEDRSPPTAL [MKNK1, Q9BUB5]	below the threshold

What follows are binders tested against GRID2IP_1, A4D2P6 (assay: holdup assay). Conditions: plain residues with an end cap or a label only (N-terminal biotin on a linker: ado-ado).
Sequence of GRID2IP_1, A4D2P6 (A4D2P6 1-87): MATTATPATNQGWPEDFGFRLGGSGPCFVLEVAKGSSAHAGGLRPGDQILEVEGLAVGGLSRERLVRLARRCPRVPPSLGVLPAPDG
Parameters: key: below the threshold = too weak to quantify, mostly under pKd 3.1 to 4

Binder	pKd
NNNVVKVDSV [MTNR1A, P48039]	below the threshold
SVTSERETNI [SLC16A7, O60669]	below the threshold
GEDRSPPTAL [MKNK1, Q9BUB5]	below the threshold

What follows are binders tested against Inadl_3, Q8NI35 (assay: holdup assay). Conditions: plain residues with an end cap or a label only (N-terminal biotin on a linker: ado-ado).
Sequence of Inadl_3, Q8NI35 (Q8NI35 359-469): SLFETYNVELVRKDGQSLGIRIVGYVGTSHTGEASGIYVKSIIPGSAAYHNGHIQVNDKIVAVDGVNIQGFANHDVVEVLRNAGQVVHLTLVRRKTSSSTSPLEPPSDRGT
Parameters: key: below the threshold = too weak to quantify, mostly under pKd 3.1 to 4

Binder	pKd
NNNVVKVDSV [MTNR1A, P48039]	below the threshold
SVTSERETNI [SLC16A7, O60669]	below the threshold
GEDRSPPTAL [MKNK1, Q9BUB5]	below the threshold

Each binder was assayed against Inadl_5, Q8NI35 (assay: holdup assay). Conditions: plain residues with an end cap or a label only (N-terminal biotin on a linker: ado-ado).
Sequence of Inadl_5, Q8NI35 (Q8NI35 673-780): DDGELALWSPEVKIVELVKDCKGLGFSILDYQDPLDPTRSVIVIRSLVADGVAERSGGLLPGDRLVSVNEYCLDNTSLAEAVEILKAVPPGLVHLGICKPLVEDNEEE
Parameters: key: below the threshold = too weak to quantify, mostly under pKd 3.1 to 4

Binder	pKd
NNNVVKVDSV [MTNR1A, P48039]	below the threshold
SVTSERETNI [SLC16A7, O60669]	below the threshold
GEDRSPPTAL [MKNK1, Q9BUB5]	below the threshold

The binders below were run against LDB3, O75112 (assay: holdup assay). Conditions: plain residues with an end cap or a label only (N-terminal biotin on a linker: ado-ado).
Sequence of LDB3, O75112 (O75112 1-94): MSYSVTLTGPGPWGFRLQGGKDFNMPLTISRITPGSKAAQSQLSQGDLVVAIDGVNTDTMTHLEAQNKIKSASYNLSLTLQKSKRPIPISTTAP
Parameters: key: below the threshold = too weak to quantify, mostly under pKd 3.1 to 4

Binder	pKd
NNNVVKVDSV [MTNR1A, P48039]	below the threshold
SVTSERETNI [SLC16A7, O60669]	below the threshold
GEDRSPPTAL [MKNK1, Q9BUB5]	below the threshold

The binders below were run against T4, LIN7B, Q9HAP6 (assay: holdup assay). Conditions: plain residues with an end cap or a label only (N-terminal biotin on a linker: ado-ado).
Parameters: key: below the threshold = too weak to quantify, mostly under pKd 3.1 to 4

Binder	pKd
NNNVVKVDSV [MTNR1A, P48039]	3.7
SVTSERETNI [SLC16A7, O60669]	3.62
GEDRSPPTAL [MKNK1, Q9BUB5]	below the threshold

Each binder was assayed against T5, MPDZ_10, O75970 (assay: holdup assay). Conditions: plain residues with an end cap or a label only (N-terminal biotin on a linker: ado-ado).
Parameters: key: below the threshold = too weak to quantify, mostly under pKd 3.1 to 4

Binder	pKd
NNNVVKVDSV [MTNR1A, P48039]	3.68
SVTSERETNI [SLC16A7, O60669]	below the threshold
GEDRSPPTAL [MKNK1, Q9BUB5]	below the threshold

The binders below were run against T6, MPDZ_12, O75970 (assay: holdup assay). Conditions: plain residues with an end cap or a label only (N-terminal biotin on a linker: ado-ado).
Parameters: key: below the threshold = too weak to quantify, mostly under pKd 3.1 to 4

Binder	pKd
NNNVVKVDSV [MTNR1A, P48039]	below the threshold
SVTSERETNI [SLC16A7, O60669]	below the threshold
GEDRSPPTAL [MKNK1, Q9BUB5]	below the threshold

These binders were tested against T7, MPDZ_5, O75970 (assay: holdup assay). Conditions: plain residues with an end cap or a label only (N-terminal biotin on a linker: ado-ado).
Parameters: key: below the threshold = too weak to quantify, mostly under pKd 3.1 to 4

Binder	pKd
NNNVVKVDSV [MTNR1A, P48039]	below the threshold
SVTSERETNI [SLC16A7, O60669]	below the threshold
GEDRSPPTAL [MKNK1, Q9BUB5]	below the threshold

Each binder was assayed against T8, NHERF3_3, Q5T2W1 (assay: holdup assay). Conditions: plain residues with an end cap or a label only (N-terminal biotin on a linker: ado-ado).
Parameters: key: below the threshold = too weak to quantify, mostly under pKd 3.1 to 4

Binder	pKd
NNNVVKVDSV [MTNR1A, P48039]	below the threshold
SVTSERETNI [SLC16A7, O60669]	below the threshold
GEDRSPPTAL [MKNK1, Q9BUB5]	below the threshold

What follows are binders tested against NHERF4_2, Q86UT5 (assay: holdup assay). Conditions: plain residues with an end cap or a label only (N-terminal biotin on a linker: ado-ado).
Sequence of NHERF4_2, Q86UT5 (Q86UT5 220-308): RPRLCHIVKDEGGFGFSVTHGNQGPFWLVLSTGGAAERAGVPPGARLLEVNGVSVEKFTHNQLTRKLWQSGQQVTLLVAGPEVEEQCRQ
Parameters: key: below the threshold = too weak to quantify, mostly under pKd 3.1 to 4

Binder	pKd
NNNVVKVDSV [MTNR1A, P48039]	below the threshold
SVTSERETNI [SLC16A7, O60669]	below the threshold
GEDRSPPTAL [MKNK1, Q9BUB5]	below the threshold

Each binder was assayed against NHERF4_4, Q86UT5 (assay: holdup assay). Conditions: plain residues with an end cap or a label only (N-terminal biotin on a linker: ado-ado).
Sequence of NHERF4_4, Q86UT5 (Q86UT5 464-550): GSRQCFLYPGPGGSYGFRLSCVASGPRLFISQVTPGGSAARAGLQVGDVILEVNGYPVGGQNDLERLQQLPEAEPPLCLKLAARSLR
Parameters: key: below the threshold = too weak to quantify, mostly under pKd 3.1 to 4

Binder	pKd
NNNVVKVDSV [MTNR1A, P48039]	below the threshold
SVTSERETNI [SLC16A7, O60669]	below the threshold
GEDRSPPTAL [MKNK1, Q9BUB5]	below the threshold

What follows are binders tested against T9, PDZRN3_1, Q9UPQ7 (assay: holdup assay). Conditions: plain residues with an end cap or a label only (N-terminal biotin on a linker: ado-ado).
Parameters: key: below the threshold = too weak to quantify, mostly under pKd 3.1 to 4

Binder	pKd
NNNVVKVDSV [MTNR1A, P48039]	below the threshold
SVTSERETNI [SLC16A7, O60669]	4
GEDRSPPTAL [MKNK1, Q9BUB5]	below the threshold

Each binder was assayed against T10, RAPGEF6, Q8TEU7 (assay: holdup assay). Conditions: plain residues with an end cap or a label only (N-terminal biotin on a linker: ado-ado).
Parameters: key: below the threshold = too weak to quantify, mostly under pKd 3.1 to 4

Binder	pKd
NNNVVKVDSV [MTNR1A, P48039]	below the threshold
SVTSERETNI [SLC16A7, O60669]	below the threshold
GEDRSPPTAL [MKNK1, Q9BUB5]	below the threshold

Each binder was assayed against SCRIB_1, Q14160 (assay: holdup assay). Conditions: plain residues with an end cap or a label only (N-terminal biotin on a linker: ado-ado).
Sequence of SCRIB_1, Q14160 (Q14160 718-814): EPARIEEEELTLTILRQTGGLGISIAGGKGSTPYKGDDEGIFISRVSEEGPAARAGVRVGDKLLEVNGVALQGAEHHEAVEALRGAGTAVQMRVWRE
Parameters: key: below the threshold = too weak to quantify, mostly under pKd 3.1 to 4

Binder	pKd
NNNVVKVDSV [MTNR1A, P48039]	below the threshold
SVTSERETNI [SLC16A7, O60669]	4.1
GEDRSPPTAL [MKNK1, Q9BUB5]	below the threshold

What follows are binders tested against T11, SIPA1L2, Q9P2F8 (assay: holdup assay). Conditions: plain residues with an end cap or a label only (N-terminal biotin on a linker: ado-ado).
Parameters: key: below the threshold = too weak to quantify, mostly under pKd 3.1 to 4

Binder	pKd
NNNVVKVDSV [MTNR1A, P48039]	below the threshold
SVTSERETNI [SLC16A7, O60669]	below the threshold
GEDRSPPTAL [MKNK1, Q9BUB5]	below the threshold

These binders were tested against T12, SNTG2, Q9NY99 (assay: holdup assay). Conditions: plain residues with an end cap or a label only (N-terminal biotin on a linker: ado-ado).
Parameters: key: below the threshold = too weak to quantify, mostly under pKd 3.1 to 4

Binder	pKd
NNNVVKVDSV [MTNR1A, P48039]	below the threshold
SVTSERETNI [SLC16A7, O60669]	4.51
GEDRSPPTAL [MKNK1, Q9BUB5]	3.7

These binders were tested against SNX27, Q96L92 (assay: holdup assay). Conditions: plain residues with an end cap or a label only (N-terminal biotin on a linker: ado-ado).
Parameters: key: below the threshold = too weak to quantify, mostly under pKd 3.1 to 4

Binder	pKd
NNNVVKVDSV [MTNR1A, P48039]	below the threshold
SVTSERETNI [SLC16A7, O60669]	4.74
GEDRSPPTAL [MKNK1, Q9BUB5]	below the threshold

The binders below were run against TJP1_3, Q07157 (assay: holdup assay). Conditions: plain residues with an end cap or a label only (N-terminal biotin on a linker: ado-ado).
Sequence of TJP1_3, Q07157 (Q07157 416-512): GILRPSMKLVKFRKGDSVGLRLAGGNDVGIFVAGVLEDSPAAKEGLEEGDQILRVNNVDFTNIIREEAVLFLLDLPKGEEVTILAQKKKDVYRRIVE
Parameters: key: below the threshold = too weak to quantify, mostly under pKd 3.1 to 4

Binder	pKd
NNNVVKVDSV [MTNR1A, P48039]	below the threshold
SVTSERETNI [SLC16A7, O60669]	below the threshold
GEDRSPPTAL [MKNK1, Q9BUB5]	below the threshold
